Experimental findings from publication PMC5469495, “MicroRNA319-regulated TCPs interact with FBHs and PFT1 to activate CO transcription and control flowering time in Arabidopsis” (PLoS Genetics, 2017) are described below.

Sequences and labels used below:
B2: FBH1-YFP (natural protein, Arabidopsis thaliana, UniProt Q9C8P8 1-259, looked up)
chain: MQSTHISGGSSGGGGGGGGEVSRSGLSRIRSAPATWIETLLEEDEEEGLKPNLCLTELLTGNNNSGGVITSRDDSFEFLSSVEQGLYNHHQGGGFHRQNSSPADFLSGSGSGTDGYFSNFGIPANYDYLSTNVDISPTKRSRDMETQFSSQLKEEQMSGGISGMMDMNMDKIFEDSVPCRVRAKRGCATHPRSIAERVRRTRISDRIRRLQELVPNMDKQTNTADMLEEAVEYVKALQSQIQELTEQQKRCKCKPKEEQ
notes: FBH1, Arabidopsis thaliana, At1g35460; FRET acceptor; also called FLOWERING BHLH 1; source: Arabidopsis protoplast cells, co-expressed

Common to all, as to assay: FRET or BRET; FLIM-FRET in Arabidopsis protoplast cells, 24 h after transformation; CFP fusion as donor, YFP fusion as acceptor; CFP lifetime in nuclei; negative controls TCP4-CFP/YFP tauD 2.59 ± 0.39 ns and PFT1-CFP/YFP tauD 2.80 ± 0.28 ns
Conditions in all cases: partners not purified
(In general: BRET reads energy transfer from a luciferase to a nearby fluorophore.)

One assay has as its target T1, PFT1-YFP (Arabidopsis thaliana, UniProt Q7XYY2 1-836).
T1 construct: PFT1 (MED25), Arabidopsis thaliana, At1g25540; FRET acceptor; also called PHYTOCHROME AND FLOWERING TIME 1; MED25; source: Arabidopsis protoplast cells, co-expressed
T1 sequence (looked up): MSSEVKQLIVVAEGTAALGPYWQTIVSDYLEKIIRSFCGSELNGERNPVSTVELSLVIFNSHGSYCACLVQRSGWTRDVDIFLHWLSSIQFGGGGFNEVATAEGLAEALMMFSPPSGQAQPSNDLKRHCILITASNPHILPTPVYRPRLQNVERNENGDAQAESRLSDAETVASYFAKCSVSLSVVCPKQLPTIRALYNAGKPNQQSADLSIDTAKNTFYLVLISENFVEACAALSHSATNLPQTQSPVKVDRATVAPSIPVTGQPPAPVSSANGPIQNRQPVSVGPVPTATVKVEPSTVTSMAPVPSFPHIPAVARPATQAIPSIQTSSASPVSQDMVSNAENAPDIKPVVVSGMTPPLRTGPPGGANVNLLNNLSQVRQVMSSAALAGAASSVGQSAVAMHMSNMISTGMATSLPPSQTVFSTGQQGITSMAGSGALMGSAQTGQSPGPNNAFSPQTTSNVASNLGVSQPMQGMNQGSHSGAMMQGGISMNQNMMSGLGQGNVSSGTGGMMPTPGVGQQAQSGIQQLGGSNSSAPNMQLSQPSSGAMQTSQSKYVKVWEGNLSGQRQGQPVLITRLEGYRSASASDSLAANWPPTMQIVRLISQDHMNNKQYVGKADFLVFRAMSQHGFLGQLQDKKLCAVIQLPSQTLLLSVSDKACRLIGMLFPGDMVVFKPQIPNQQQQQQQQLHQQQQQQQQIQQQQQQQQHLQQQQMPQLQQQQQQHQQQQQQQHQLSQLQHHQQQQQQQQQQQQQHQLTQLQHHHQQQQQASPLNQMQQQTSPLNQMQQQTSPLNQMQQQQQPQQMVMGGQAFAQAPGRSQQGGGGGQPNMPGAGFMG

The assay “FBH1-YFP” concerns the target B2.
In a further assay the target is T2, PFT1-CFP (Arabidopsis thaliana, UniProt Q7XYY2 1-836).
T2 construct: PFT1 (MED25), Arabidopsis thaliana, At1g25540; FRET donor; also called PHYTOCHROME AND FLOWERING TIME 1; MED25; source: Arabidopsis protoplast cells, co-expressed
T2 sequence (looked up): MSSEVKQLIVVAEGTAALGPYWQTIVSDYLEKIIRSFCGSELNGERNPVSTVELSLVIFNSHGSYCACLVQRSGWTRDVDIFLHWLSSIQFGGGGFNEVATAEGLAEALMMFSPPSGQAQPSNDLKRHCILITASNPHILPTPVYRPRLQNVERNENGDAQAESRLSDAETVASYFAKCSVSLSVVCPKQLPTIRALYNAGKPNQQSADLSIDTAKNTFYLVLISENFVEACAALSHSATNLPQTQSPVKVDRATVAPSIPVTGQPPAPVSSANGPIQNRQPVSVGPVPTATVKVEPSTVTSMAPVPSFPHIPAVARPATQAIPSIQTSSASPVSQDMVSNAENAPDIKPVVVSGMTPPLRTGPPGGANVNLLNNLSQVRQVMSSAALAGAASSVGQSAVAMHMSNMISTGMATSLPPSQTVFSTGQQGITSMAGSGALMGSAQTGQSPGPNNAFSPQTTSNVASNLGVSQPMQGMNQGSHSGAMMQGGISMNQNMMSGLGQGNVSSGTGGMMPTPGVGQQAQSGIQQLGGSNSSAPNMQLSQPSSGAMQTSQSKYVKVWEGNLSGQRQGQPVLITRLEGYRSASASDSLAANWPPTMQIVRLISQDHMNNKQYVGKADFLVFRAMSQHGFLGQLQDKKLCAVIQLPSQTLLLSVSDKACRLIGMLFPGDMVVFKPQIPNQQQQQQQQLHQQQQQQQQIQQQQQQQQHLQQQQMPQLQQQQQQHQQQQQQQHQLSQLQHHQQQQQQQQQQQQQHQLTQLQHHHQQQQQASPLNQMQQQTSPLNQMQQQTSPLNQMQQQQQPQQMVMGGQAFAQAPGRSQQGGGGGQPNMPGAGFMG

B1: TCP4-CFP (natural protein, Arabidopsis thaliana, UniProt Q8LPR5 1-420, looked up)
chain: MSDDQFHHPPPPSSMRHRSTSDAADGGCGEIVEVQGGHIVRSTGRKDRHSKVCTAKGPRDRRVRLSAHTAIQFYDVQDRLGFDRPSKAVDWLIKKAKTSIDELAELPPWNPADAIRLAAANAKPRRTTAKTQISPSPPPPQQQQQQQQLQFGVGFNGGGAEHPSNNESSFLPPSMDSDSIADTIKSFFPVIGSSTEAPSNHNLMHNYHHQHPPDLLSRTNSQNQDLRLSLQSFPDGPPSLLHHQHHHHTSASASEPTLFYGQSNPLGFDTSSWEQQSSEFGRIQRLVAWNSGGGGGATDTGNGGGFLFAPPTPSTTSFQPVLGQSQQLYSQRGPLQSSYSPMIRAWFDPHHHHQSISTDDLNHHHHLPPPVHQSAIPGIGFASGEFSSGFRIPARFQGQEEEQHDGLTHKPSSASSISRH
notes: TCP4, Arabidopsis thaliana, At3g15030; FRET donor; source: Arabidopsis protoplast cells, co-expressed
Consider B1, for which the “average CFP fluorescence lifetime (tauDA)” value with PFT1-YFP was determined as 0.9 ns; in the assay with FBH1-YFP, 0.99 ns. On to B2, for which the “average CFP fluorescence lifetime (tauDA)” value in the assay with PFT1-CFP is 0.95 ns.
